{"source": "patent US20110086028A1", "key": {"[1]": {"biological_target": "full length gp-340 (exon 1-54) expressed on the surface of 293 cells transfected with pDEST-DMBT1 (clone 1D4) (UniProt Q9UGM3)", "sequence (Q9UGM3 20-2413 limits assumed, change not shown)": "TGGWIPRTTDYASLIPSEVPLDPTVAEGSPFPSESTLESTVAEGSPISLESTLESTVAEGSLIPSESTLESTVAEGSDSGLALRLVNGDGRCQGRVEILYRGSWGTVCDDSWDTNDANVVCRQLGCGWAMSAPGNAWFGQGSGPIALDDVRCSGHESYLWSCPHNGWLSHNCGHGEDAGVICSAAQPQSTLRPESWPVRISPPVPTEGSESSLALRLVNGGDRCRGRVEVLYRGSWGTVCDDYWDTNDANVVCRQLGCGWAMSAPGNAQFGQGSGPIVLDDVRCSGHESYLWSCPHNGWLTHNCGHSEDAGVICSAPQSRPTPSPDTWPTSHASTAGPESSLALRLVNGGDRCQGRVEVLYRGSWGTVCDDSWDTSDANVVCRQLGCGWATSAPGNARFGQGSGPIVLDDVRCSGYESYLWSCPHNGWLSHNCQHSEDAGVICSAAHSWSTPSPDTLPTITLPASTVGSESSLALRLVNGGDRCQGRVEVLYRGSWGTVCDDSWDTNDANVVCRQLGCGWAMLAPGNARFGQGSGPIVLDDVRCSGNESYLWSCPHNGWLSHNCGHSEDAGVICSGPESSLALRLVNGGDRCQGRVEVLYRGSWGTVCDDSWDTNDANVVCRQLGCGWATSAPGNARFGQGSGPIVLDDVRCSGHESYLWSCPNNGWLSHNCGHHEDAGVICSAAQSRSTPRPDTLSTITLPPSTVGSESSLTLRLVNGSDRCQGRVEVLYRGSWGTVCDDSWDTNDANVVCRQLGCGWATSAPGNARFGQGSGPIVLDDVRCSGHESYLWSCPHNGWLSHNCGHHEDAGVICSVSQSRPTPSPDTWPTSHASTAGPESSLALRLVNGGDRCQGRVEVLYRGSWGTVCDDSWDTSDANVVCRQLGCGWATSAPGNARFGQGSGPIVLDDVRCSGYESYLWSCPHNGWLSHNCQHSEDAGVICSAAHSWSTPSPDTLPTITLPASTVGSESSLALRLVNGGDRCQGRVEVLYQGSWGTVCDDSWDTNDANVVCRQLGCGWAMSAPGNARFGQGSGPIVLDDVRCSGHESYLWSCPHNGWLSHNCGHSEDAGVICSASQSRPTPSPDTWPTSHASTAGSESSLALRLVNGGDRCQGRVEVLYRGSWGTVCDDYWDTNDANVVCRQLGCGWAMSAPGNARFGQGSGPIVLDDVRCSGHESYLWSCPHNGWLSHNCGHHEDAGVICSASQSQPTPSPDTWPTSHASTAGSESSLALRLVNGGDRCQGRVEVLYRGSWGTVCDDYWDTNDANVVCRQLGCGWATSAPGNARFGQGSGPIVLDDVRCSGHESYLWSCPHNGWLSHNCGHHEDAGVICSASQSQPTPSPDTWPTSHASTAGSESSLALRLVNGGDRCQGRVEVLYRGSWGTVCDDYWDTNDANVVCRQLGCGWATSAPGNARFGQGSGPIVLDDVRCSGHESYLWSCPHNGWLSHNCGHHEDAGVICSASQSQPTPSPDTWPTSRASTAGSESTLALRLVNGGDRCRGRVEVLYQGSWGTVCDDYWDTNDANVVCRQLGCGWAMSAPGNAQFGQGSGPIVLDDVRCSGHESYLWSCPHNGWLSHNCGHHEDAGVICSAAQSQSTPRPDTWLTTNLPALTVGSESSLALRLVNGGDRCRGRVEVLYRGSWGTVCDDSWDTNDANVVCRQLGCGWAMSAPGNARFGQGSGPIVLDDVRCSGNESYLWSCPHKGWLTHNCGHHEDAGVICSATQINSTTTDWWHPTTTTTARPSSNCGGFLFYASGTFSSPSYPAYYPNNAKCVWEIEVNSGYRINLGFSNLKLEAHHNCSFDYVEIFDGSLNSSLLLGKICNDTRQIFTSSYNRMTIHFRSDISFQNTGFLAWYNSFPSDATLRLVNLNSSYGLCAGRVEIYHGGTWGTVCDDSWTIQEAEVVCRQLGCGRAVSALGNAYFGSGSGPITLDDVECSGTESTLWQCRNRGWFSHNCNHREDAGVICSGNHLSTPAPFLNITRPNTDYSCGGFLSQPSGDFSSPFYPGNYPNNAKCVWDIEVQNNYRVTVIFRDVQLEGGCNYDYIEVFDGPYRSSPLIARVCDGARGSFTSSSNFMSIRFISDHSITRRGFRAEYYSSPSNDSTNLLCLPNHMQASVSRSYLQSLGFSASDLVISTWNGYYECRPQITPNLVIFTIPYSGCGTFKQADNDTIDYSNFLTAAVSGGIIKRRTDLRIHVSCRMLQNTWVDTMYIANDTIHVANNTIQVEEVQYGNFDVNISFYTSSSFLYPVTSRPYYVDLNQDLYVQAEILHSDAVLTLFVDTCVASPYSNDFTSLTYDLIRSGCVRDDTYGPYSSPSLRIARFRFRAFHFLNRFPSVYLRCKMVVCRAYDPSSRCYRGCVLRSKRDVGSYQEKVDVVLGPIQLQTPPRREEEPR", "test": "cell-based or functional assay"}, "[2]": {"biological_target": "endogenous cell-associated gp-340 on human cell lines (AGS, VK2E6E7, Endo1E6E7, Ect1E6E7, HEC1A, untransfected 293) and human vaginal and cervical tissue (human) (UniProt Q9UGM3)", "sequence (Q9UGM3 20-2413)": "as the sequence (Q9UGM3 20-2413 limits assumed, change not shown) above", "test": "cell-based or functional assay"}}, "data": [{"substance": "HIV-1 Env (gp120) of primary M-tropic strain BL2, on virus particles", "values": [{"measurement": "TCID50 of added virus in trans-infection to PHA-blasts, gp-340 expressing 293 cells against non-exogenously expressing 293 cells", "setting": "[1]", "result": 6, "unit": "fold"}, {"measurement": "mean P24 in 6 wells, clone 1D4 without peptide 6284, 0.11 IU", "setting": "[1]", "result": 184}, {"measurement": "mean P24 in 6 wells, clone 1D4 without peptide 6284, 0.33 IU", "setting": "[1]", "result": 239}, {"measurement": "percentage of wells infected at 0.11 IU of HIV added (trans-infection, gp-340 expressing 293 cells)", "setting": "[1]", "result": 50, "unit": "%"}, {"measurement": "percentage of wells infected at 0.33 IU of HIV added (trans-infection, gp-340 expressing 293 cells)", "setting": "[1]", "result": 100, "unit": "%"}, {"measurement": "enhancement in viral infectivity (AGS cell trans-infection)", "setting": "[2]", "result": 6, "unit": "fold"}, {"measurement": "viral input at which cells were infected in 50% of the wells (AGS cell trans-infection)", "setting": "[2]", "result": 0.08, "unit": "IU"}]}]}
